# In the supplement of paper PMC5998384:
# Columns and labels:
# [1] = system: HeLa Kyoto; experiment: melting temperature (median over replicates), in situ; higher = more thermally stable
# [2] = system: HeLa Kyoto; experiment: solubility change mitosis vs G1/S (difference of NP-40 vs SDS log2 ratios) (log2 ratio difference); higher = more soluble in mitosis
# [3] = system: HeLa Kyoto; experiment: solubility in G1/S (NP-40 vs SDS abundance) (log2 ratio); higher = more soluble; details: cell cycle stage: G1/S
# [4] = system: HeLa Kyoto; experiment: thermal stability score vs G1/S (z-score of summed log2 fold changes over temperatures); higher = more thermally stable than in G1/S
# [5] = cell cycle stage: early G1 (4.5 h after nocodazole release)
# 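Wherever melting temperature (median over replicates), in situ is given: HeLa Kyoto cells synchronized by double thymidine or nocodazole block, proteins quantified by TMT10plex mass spectrometry, three independent biological replicates.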
# 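Wherever solubility change mitosis vs G1/S (difference of NP-40 vs SDS log2 ratios) is given: synchronized HeLa Kyoto cells (double thymidine block for G1/S, nocodazole release for mitosis), protein amounts in NP-40 versus SDS lysates quantified by mass spectrometry, three biological replicates.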
# 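Wherever solubility in G1/S (NP-40 vs SDS abundance) is given: HeLa Kyoto cells arrested at G1/S by double thymidine block, proteins quantified by TMT10plex mass spectrometry in mild NP-40 versus SDS extracts, three biological replicates.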
# 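Wherever thermal stability score vs G1/S (z-score of summed log2 fold changes over temperatures) is given: synchronized HeLa Kyoto cells, proteins quantified by TMT10plex mass spectrometry, three biological replicates, mitosis taken 0.5 h after nocodazole release, G1/S directly after double thymidine block.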
Substance,melting temperature ([1]; cell cycle stage: G1/S),melting temperature ([1]; cell cycle stage: mitosis),solubility change mitosis (log2) [2],solubility in G1/S (log2) [3],"thermal stability score [4, 5]",thermal stability score ([4]; cell cycle stage: mitosis)
MERFRLEKKLPGPDEEAVVDLGKTSSTVNTKFEKEELESHRAVYIGVHVPFSKESRRRHRHRGHKHHHRRRKDKESDKEDGRESPSYDTPSQRVQFILGTEDDDEEHIPHDLFTEMDELCYRDGEEYEWKETARWLKFEEDVEDGGDRWSKPYVATLSLHSLFELRSCILNGTVMLDMRASTLDEIADMVLDNMIASGQLDESIRENVREALLKRHHHQNEKRFTSRIPLVRSFADIGKKHSDPHLLERNGEGLSASRHSLRTGLSASNLSLRGESPLSLLLGHLLPSSRAGTPAGSRCTTPVPTPQNSPPSSPSISRLTSRSSQESQRQAPELLVSPASDDIPTVVIHPPEEDLEAALKGEEQKNEENVDLTPGILASPQSAPGNLDNSKSGEIKGNGSGGSRENSTVDFSKVDMNFMRKIPTGAEASNVLVGEVDFLERPIIAFVRLAPAVLLTGLTEVPVPTRFLFLLLGPAGKAPQYHEIGRSIATLMTDEIFHDVAYKAKDRNDLLSGIDEFLDQVTVLPPGEWDPSIRIEPPKSVPSQEKRKIPVFHNGSTPTLGETPKEAAHHAGPELQRTGRLFGGLILDIKRKAPFFLSDFKDALSLQCLASILFLYCACMSPVITFGGLLGEATEGRISAIESLFGASLTGIAYSLFAGQPLTILGSTGPVLVFEKILYKFCRDYQLSYLSLRTSIGLWTSFLCIVLVATDASSLVCYITRFTEEAFAALICIIFIYEALEKLFDLGETYAFNMHNNLDKLTSYSCVCTEPPNPSNETLAQWKKDNITAHNISWRNLTVSECKKLRGVFLGSACGHHGPYIPDVLFWCVILFFTTFFLSSFLKQFKTKRYFPTKVRSTISDFAVFLTIVIMVTIDYLVGVPSPKLHVPEKFEPTHPERGWIISPLGDNPWWTLLIAAIPALLCTILIFMDQQITAVIINRKEHKLKKGAGYHLDLLMVGVMLGVCSVMGLPWFVAATVLSISHVNSLKVESECSAPGEQPKFLGIREQRVTGLMIFILMGLSVFMTSVLKFIPMPVLYGVFLYMGVSSLKGIQLFDRIKLFGMPAKHQPDLIYLRYVPLWKVHIFTVIQLTCLVLLWVIKVSAAAVVFPMMVLALVFVRKLMDLCFTKRELSWLDDLMPESKKKKEDDKKKKEKEEAERMLQDDDDTVHLPFEGGSLLQIPVKALKYSPDKPVSVKISFEDEPRKKYVDAETSL [SLC4A7],54.4 °C,53.6 °C,0.0133,-0.196,-0.753,1.69
YLPM1,48.3 °C,48.3 °C,0.495,-0.708,0.777,0.487
MPENVAPRSGATAGAAGGRGKGAYQDRDKPAQIRFSNISAAKAVADAIRTSLGPKGMDKMIQDGKGDVTITNDGATILKQMQVLHPAARMLVELSKAQDIEAGDGTTSVVIIAGSLLDSCTKLLQKGIHPTIISESFQKALEKGIEILTDMSRPVELSDRETLLNSATTSLNSKVVSQYSSLLSPMSVNAVMKVIDPATATSVDLRDIKIVKKLGGTIDDCELVEGLVLTQKVSNSGITRVEKAKIGLIQFCLSAPKTDMDNQIVVSDYAQMDRVLREERAYILNLVKQIKKTGCNVLLIQKSILRDALSDLALHFLNKMKIMVIKDIEREDIEFICKTIGTKPVAHIDQFTADMLGSAELAEEVNLNGSGKLLKITGCASPGKTVTIVVRGSNKLVIEEAERSIHDALCVIRCLVKKRALIAGGGAPEIELALRLTEYSRTLSGMESYCVRAFADAMEVIPSTLAENAGLNPISTVTELRNRHAQGEKTAGINVRKGGISNILEELVVQPLLVSVSALTLATETVRSILKIDDVVNTR [CCT4],53.6 °C,53.1 °C,-0.141,0.192,-1.23,-2.24
MNVTPEVKSRGMKFAEEQLLKHGWTQGKGLGRKENGITQALRVTLKQDTHGVGHDPAKEFTNHWWNELFNKTAANLVVETGQDGVQIRSLSKETTRYNHPKPNLLYQKFVKMATLTSGGEKPNKDLESCSDDDNQGSKSPKILTDEMLLQACEGRTAHKAARLGITMKAKLARLEAQEQAFLARLKGQDPGAPQLQSESKPPKKKKKKRRQKEEEEATASERNDADEKHPEHAEQNIRKSKKKKRRHQEGKVSDEREGTTKGNEKEDAAGTSGLGELNSREQTNQSLRKGKKKKRWHHEEEKMGVLEEGGKGKEAAGSVRTEEVESRAYADPCSRRKKRQQQEEEDLNLEDRGEETVLGGGTREAESRACSDGRSRKSKKKRQQHQEEEDILDVRDEKDGGAREAESRAHTGSSSRGKRKRQQHPKKERAGVSTVQKAKKKQKKRD [GPATCH4],47.5 °C,48.6 °C,0.885,-1.28,1.12,2.93
MAAAEPSPRRVGFVGAGRMAGAIAQGLIRAGKVEAQHILASAPTDRNLCHFQALGCRTTHSNQEVLQSCLLVIFATKPHVLPAVLAEVAPVVTTEHILVSVAAGVSLSTLEELLPPNTRVLRVLPNLPCVVQEGAIVMARGRHVGSSETKLLQHLLEACGRCEEVPEAYVDIHTGLSGSGVAFVCAFSEALAEGAVKMGMPSSLAHRIAAQTLLGTAKMLLHEGQHPAQLRSDVCTPGGTTIYGLHALEQGGLRAATMSAVEAATCRAKELSRK [PYCRL],53.5 °C,55.3 °C,0.0528,0.155,-1.28,-1.85
